# Experimental data: the Human Domainome abundance scans (Beltran et al. 2025)
# ± gives the uncertainty stated by the source.
# B1: Telomeric repeat-binding factor 2, residues 489 to 542; numbered along this chain, Q15554 (parent)
# chain: KQKWTVEESEWVKAGVQKYGEGNWAAISKNYPFVNRTAVMIKDRWRTMKRLGMN
# Variants of: B1
# Experiment: abundance fitness (aPCA) (normalised: wild type 0, dead -1); higher = more abundant; growth selection in yeast, the domain comes from the species named
# Conditions: Homo sapiens
row,Variant,abundance fitness
1,K29N,0.205 ± 0.45
2,K29G,-0.364 ± 0.051
3,K29D,-0.188 ± 0.15
4,K29I,-0.221 ± 0.1
5,K29W,-0.54 ± 0.13
6,K29Y,-0.116 ± 0.16
7,K29V,-0.066 ± 0.08
8,K29S,-0.082 ± 0.053
9,K29R,-0.281 ± 0.088
10,K29T,-0.051 ± 0.12
11,K29M,-0.091 ± 0.091
12,K29A,-0.256 ± 0.11
13,K29P,-0.626 ± 0.23
14,K29H,-0.042 ± 0.23
15,K29L,-0.129 ± 0.076
16,K29C,0.162 ± 0.13
17,V12R,-0.682 ± 0.14
18,V12T,-0.144 ± 0.15
19,V12S,-0.356 ± 0.054
20,V12Y,-0.855 ± 0.34
21,V12W,-0.744 ± 0.13

row,Variant,abundance fitness
1,F33M,-0.652 ± 0.08
2,F33L,-0.65 ± 0.09
3,F33S,-0.972 ± 0.2
4,F33D,-1.02 ± 0.35
5,F33I,-0.834 ± 0.34
6,F33A,-0.745 ± 0.061
7,F33R,-0.845 ± 0.079
8,F33C,-0.899 ± 0.29
9,F33H,-0.212 ± 0.26
10,F33V,-0.604 ± 0.075
11,F33Q,-0.817 ± 0.28
12,F33T,-0.826 ± 0.19
13,F33W,-0.166 ± 0.054
14,F33N,-0.499 ± 0.43
15,F33P,-0.871 ± 0.087
16,F33K,-0.715 ± 0.21
17,A26G,-0.792 ± 0.11
18,A26C,0.047 ± 0.14
19,A26Y,-0.288 ± 0.15
20,A26L,-0.022 ± 0.082
21,A26T,0.065 ± 0.22

row,Variant,abundance fitness
1,A26K,-0.005 ± 0.11
2,A26Q,0.078 ± 0.15
3,A26I,-0.177 ± 0.28
4,A26E,-0.18 ± 0.12
5,A26M,-0.493 ± 0.28
6,A26N,-0.656 ± 0.22
7,A26V,-0.025 ± 0.043
8,A26D,-0.266 ± 0.14
9,A26S,-0.068 ± 0.053
10,A26W,-0.545 ± 0.16
11,N30M,-0.314 ± 0.17
12,N30K,-0.16 ± 0.088
13,N30F,-0.422 ± 0.2
14,N30P,-0.963 ± 0.18
15,N30Q,-0.092 ± 0.18
16,N30L,-0.287 ± 0.064
17,N30A,-0.042 ± 0.071
18,N30D,-0.474 ± 0.18
19,N30T,-0.338 ± 0.22
20,N30S,-0.113 ± 0.058
21,N30W,-0.431 ± 0.092

row,Variant,abundance fitness
1,N30Y,-0.284 ± 0.082
2,N30C,-0.402 ± 0.099
3,N30E,0.077 ± 0.12
4,N30R,-0.508 ± 0.11
5,V34F,-0.129 ± 0.064
6,V34D,-0.711 ± 0.16
7,V34H,0.032 ± 0.11
8,V34E,0.005 ± 0.044
9,V34A,-0.16 ± 0.044
10,V34I,-0.066 ± 0.093
11,V34G,-0.34 ± 0.043
12,V34C,-0.123 ± 0.053
13,A25L,-0.17 ± 0.065
14,A25M,-0.018 ± 0.13
15,A25E,0.074 ± 0.11
16,A25H,-0.127 ± 0.22
17,A25N,0.015 ± 0.13
18,A25F,0.045 ± 0.13
19,A25W,-0.146 ± 0.041
20,A25D,0.472 ± 0.24
